Measurements taken from the Human Domainome abundance scans (Beltran et al. 2025).
± gives the uncertainty stated by the source.

B1: Syntaxin-binding protein 4, residues 493 to 538; numbered along this chain, Q6ZWJ1 (parent)
chain: LDMDCLPYGWEEAYTADGIKYFINHVTQTTSWIHPVMSVLNLSRSE

Variants of: B1
Experiment: abundance fitness (aPCA) (normalised: wild type 0, dead -1); higher = more abundant; growth selection in yeast, the domain comes from the species named
Conditions: Homo sapiens

Abundance fitness of substitutions, site by site:
C5: I -0.113 ± 0.15, V -0.155 ± 0.085, W -0.533 ± 0.1, D 0.321 ± 0.12, P -0.291 ± 0.12, F -0.11 ± 0.11, G -0.04 ± 0.076, K 0.076 ± 0.098, H -0.06 ± 0.14, A 0.238 ± 0.084, M -0.173 ± 0.11, S 0.142 ± 0.081, N -0.254 ± 0.12, Y -0.268 ± 0.088, E 0.234 ± 0.094, R -0.18 ± 0.078
G9: F -0.926 ± 0.15, I -0.459 ± 0.19, C -0.892 ± 0.12, K -0.807 ± 0.11, E -0.184 ± 0.088, V -0.692 ± 0.081, L -0.636 ± 0.084, T -0.833 ± 0.099, A -0.803 ± 0.087, Y -0.826 ± 0.14, R -0.846 ± 0.088, H -0.86 ± 0.15, W -0.699 ± 0.1, D -0.604 ± 0.086, N -0.849 ± 0.14, P -0.397 ± 0.092, Q -0.908 ± 0.13, M -0.865 ± 0.12
Y8: C -0.425 ± 0.093, H -0.094 ± 0.098, Q -0.119 ± 0.1, G -0.028 ± 0.073, E 0.326 ± 0.084, S 0.138 ± 0.075, K 0.109 ± 0.095, L -0.367 ± 0.082, D 0.326 ± 0.1, W -0.371 ± 0.091, R -0.34 ± 0.076, P 0.157 ± 0.08, I -0.08 ± 0.094, M -0.292 ± 0.099, F -0.258 ± 0.098, A 0.198 ± 0.081, T -0.122 ± 0.086
L6: A -0.707 ± 0.094, D -0.405 ± 0.15, V -0.511 ± 0.089, T -0.737 ± 0.12, I -0.965 ± 0.2, Q -0.817 ± 0.14, M -0.692 ± 0.12, R -0.644 ± 0.088, G -0.754 ± 0.087, S -0.816 ± 0.1, H -0.844 ± 0.22, W -0.922 ± 0.11, F -0.604 ± 0.17, N -0.375 ± 0.16, P -0.608 ± 0.11, E -0.541 ± 0.1, K -0.266 ± 0.11, Y -0.709 ± 0.16
D4: C -0.354 ± 0.11, I -0.639 ± 0.17, T -0.535 ± 0.11, S -0.221 ± 0.082, F -0.613 ± 0.16, Y -0.863 ± 0.15, N -0.098 ± 0.088, A -0.561 ± 0.085, E -0.16 ± 0.1, L -0.638 ± 0.094, P -0.511 ± 0.13, K -0.543 ± 0.11, H -0.835 ± 0.17, R -0.545 ± 0.083, W -0.499 ± 0.097, G -0.348 ± 0.077, V -0.766 ± 0.092
P7: N -0.714 ± 0.16, S -0.834 ± 0.1, I -0.984 ± 0.17, E -0.711 ± 0.098, M -0.793 ± 0.12, K -0.649 ± 0.13, F -0.616 ± 0.13, A -0.646 ± 0.091, V -0.742 ± 0.088, L -0.711 ± 0.095, Q -0.903 ± 0.14, H -0.669 ± 0.15, G -0.719 ± 0.086, R -0.782 ± 0.094, T -0.483 ± 0.12, W -0.629 ± 0.099
E12: A -0.767 ± 0.1, Y -0.794 ± 0.18, R -0.804 ± 0.081, L -0.804 ± 0.099, I -0.273 ± 0.13, M -0.361 ± 0.12, Q -0.463 ± 0.12, T -0.518 ± 0.1, C -0.496 ± 0.1, S -0.619 ± 0.093, V 0.12 ± 0.08, G -0.818 ± 0.083, D -0.89 ± 0.15, W -0.744 ± 0.1, P -0.795 ± 0.14, H -0.795 ± 0.17, K -0.953 ± 0.13, F -0.801 ± 0.15, N -0.765 ± 0.19
W10: I -0.596 ± 0.13, T -0.869 ± 0.11, F -0.796 ± 0.14, N -0.615 ± 0.15, R -0.863 ± 0.083, Y -0.774 ± 0.15, G -0.716 ± 0.078, S -0.816 ± 0.096, V -0.651 ± 0.087, D -0.68 ± 0.13, Q -0.613 ± 0.11, A -0.667 ± 0.087, C -1.01 ± 0.14, P -0.741 ± 0.1, M -0.918 ± 0.13, L -0.844 ± 0.092
E11: C -0.861 ± 0.11, R -0.537 ± 0.077, A -0.747 ± 0.091, D -0.528 ± 0.11, Q -0.4 ± 0.097, T -0.733 ± 0.1, K -0.535 ± 0.11, L -0.771 ± 0.089, Y -0.909 ± 0.14, P -0.78 ± 0.11, I -0.502 ± 0.13, G -0.827 ± 0.082, H -0.657 ± 0.15, F -0.555 ± 0.12, W -0.696 ± 0.09, S -0.433 ± 0.081, V -0.531 ± 0.083, M -0.793 ± 0.11
M3: Y -0.458 ± 0.12, L -0.036 ± 0.08, R 0.027 ± 0.076, F -0.069 ± 0.13, D -0.103 ± 0.096, G -0.084 ± 0.075, H -0.117 ± 0.099, Q 0.065 ± 0.11, N 0.354 ± 0.1, C 0.117 ± 0.089, T 0.287 ± 0.086, A -0.058 ± 0.078
